Publication PMC5399129
Each block holds one substance with its values, some of them ahead of it.

Key:
[1] = molecular target: MbR D183A (Methanococcoides burtonii); test: native gel or EMSA; non-denaturing PAGE (4-15% gel; 25 mM Tris, 0.19 M glycine, pH 8.3) of activated MbR incubated with 1x or 10x molar 2-CABP (relative to active sites) for 1 h at room temperature; step: L2 dimers to higher oligomers up to L10; some 2-CABP-bound samples were then incubated with 20 or 40 mM EDTA for 30 min, which did not pull the higher order complexes apart
[2] = molecular target: MbR D366A (Methanococcoides burtonii); test: as above
[3] = molecular target: MbR E179A (Methanococcoides burtonii); test: as above
[4] = molecular target: Methanococcoides burtonii Rubisco (MbR), wild type, H6-Ub tag cleaved (Methanococcoides burtonii); test: crystal structure; MbR activated (10 mM NaHCO3, 10 mM MgCl2) and incubated with a 10-fold molar excess of 2-CABP; hanging drop, room temperature; 2.6 Å; five LSus in the asymmetric unit, L10 by crystallographic symmetry
[5] = molecular target: Methanococcoides burtonii Rubisco (MbR), wild type, H6-Ub tag cleaved (Methanococcoides burtonii); test: native gel or EMSA; non-denaturing PAGE of purified, activated MbR incubated without 2-CABP: with 4-CABP or XuBP (1x, 10x molar), 3-PGA (1x, 10x, 1000x molar) or crystallization buffer alone, 1 h at room temperature; step: L2 dimers to higher oligomers

stoichiometry N [1]: 10
Substance: MbR D183A (enzyme)

stoichiometry N [2]: 10
Substance: MbR D366A (enzyme)

stoichiometry N [3]: 2
Substance: MbR E179A (enzyme)

stoichiometry N [4]: 10 | stoichiometry N [5]: 2
Substance: Methanococcoides burtonii Rubisco (MbR), wild type, H6-Ub tag cleaved (enzyme)
